One test deals with T1, PTPRS expressed on cells (human, UniProt Q13332 30-1948).
T1 construct: whole, on cells; also called receptor-type tyrosine-protein phosphatase S
The test can be described thus: cell surface interaction assay: streptavidin-tetramerized biotinylated ECD on transfected cells, immunofluorescence.

Another test addresses T2, PTPRF expressed on cells (human, UniProt P10586 30-1907).
T2 construct: whole, on cells; also called receptor-type tyrosine-protein phosphatase F
Described as above.

A further test addresses T3, PTPRD expressed on cells (human, UniProt P23468 21-1912).
T3 construct: whole, on cells; also called receptor-type tyrosine-protein phosphatase delta
Described as above.

The next test has as its target T4, PTPRT expressed on cells (human, UniProt O14522 26-1441).
T4 construct: whole, on cells
T4 sequence (looked up): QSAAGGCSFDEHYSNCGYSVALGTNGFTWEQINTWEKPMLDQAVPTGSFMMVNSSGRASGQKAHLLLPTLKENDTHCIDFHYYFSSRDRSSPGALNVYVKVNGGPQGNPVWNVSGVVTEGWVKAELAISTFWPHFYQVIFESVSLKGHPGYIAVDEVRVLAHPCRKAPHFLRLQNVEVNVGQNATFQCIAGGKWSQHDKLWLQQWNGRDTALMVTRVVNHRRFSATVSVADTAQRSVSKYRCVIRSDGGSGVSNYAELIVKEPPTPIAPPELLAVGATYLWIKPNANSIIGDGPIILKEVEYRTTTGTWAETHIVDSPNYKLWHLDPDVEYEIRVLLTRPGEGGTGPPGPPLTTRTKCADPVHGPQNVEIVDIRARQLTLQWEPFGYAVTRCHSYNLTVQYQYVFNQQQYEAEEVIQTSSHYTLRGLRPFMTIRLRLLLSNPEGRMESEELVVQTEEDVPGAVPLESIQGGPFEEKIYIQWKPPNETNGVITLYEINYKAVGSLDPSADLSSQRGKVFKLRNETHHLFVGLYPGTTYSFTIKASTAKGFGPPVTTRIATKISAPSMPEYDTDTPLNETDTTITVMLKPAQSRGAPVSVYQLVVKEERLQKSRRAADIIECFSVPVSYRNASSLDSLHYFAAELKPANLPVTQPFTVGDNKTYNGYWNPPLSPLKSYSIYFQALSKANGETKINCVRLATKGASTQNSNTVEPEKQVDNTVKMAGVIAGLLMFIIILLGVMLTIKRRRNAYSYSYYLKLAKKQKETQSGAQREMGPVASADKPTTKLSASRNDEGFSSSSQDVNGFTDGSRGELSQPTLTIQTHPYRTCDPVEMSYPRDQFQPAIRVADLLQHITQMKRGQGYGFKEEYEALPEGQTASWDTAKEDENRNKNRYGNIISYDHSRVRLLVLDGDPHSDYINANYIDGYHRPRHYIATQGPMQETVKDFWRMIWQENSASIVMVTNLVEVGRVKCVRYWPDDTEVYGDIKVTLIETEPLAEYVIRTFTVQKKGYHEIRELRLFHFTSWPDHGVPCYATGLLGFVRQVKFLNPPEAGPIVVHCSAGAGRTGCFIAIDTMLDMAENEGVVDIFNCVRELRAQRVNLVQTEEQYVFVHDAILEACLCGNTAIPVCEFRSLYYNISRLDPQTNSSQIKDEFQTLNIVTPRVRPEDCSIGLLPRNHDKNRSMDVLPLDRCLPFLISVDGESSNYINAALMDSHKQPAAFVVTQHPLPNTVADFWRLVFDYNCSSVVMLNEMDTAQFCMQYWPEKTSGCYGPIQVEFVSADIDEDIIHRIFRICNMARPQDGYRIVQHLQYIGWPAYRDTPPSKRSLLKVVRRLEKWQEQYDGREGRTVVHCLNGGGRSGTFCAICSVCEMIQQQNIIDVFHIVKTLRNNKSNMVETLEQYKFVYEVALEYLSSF
The test can be described thus: cell surface interaction assay: query ECD tetramerised with fluorescent streptavidin on transfected cells, immunofluorescence.

A further test deals with T5, PTPRO expressed on cells (human, UniProt Q16827 30-1216).
T5 construct: whole, on cells
T5 sequence (looked up): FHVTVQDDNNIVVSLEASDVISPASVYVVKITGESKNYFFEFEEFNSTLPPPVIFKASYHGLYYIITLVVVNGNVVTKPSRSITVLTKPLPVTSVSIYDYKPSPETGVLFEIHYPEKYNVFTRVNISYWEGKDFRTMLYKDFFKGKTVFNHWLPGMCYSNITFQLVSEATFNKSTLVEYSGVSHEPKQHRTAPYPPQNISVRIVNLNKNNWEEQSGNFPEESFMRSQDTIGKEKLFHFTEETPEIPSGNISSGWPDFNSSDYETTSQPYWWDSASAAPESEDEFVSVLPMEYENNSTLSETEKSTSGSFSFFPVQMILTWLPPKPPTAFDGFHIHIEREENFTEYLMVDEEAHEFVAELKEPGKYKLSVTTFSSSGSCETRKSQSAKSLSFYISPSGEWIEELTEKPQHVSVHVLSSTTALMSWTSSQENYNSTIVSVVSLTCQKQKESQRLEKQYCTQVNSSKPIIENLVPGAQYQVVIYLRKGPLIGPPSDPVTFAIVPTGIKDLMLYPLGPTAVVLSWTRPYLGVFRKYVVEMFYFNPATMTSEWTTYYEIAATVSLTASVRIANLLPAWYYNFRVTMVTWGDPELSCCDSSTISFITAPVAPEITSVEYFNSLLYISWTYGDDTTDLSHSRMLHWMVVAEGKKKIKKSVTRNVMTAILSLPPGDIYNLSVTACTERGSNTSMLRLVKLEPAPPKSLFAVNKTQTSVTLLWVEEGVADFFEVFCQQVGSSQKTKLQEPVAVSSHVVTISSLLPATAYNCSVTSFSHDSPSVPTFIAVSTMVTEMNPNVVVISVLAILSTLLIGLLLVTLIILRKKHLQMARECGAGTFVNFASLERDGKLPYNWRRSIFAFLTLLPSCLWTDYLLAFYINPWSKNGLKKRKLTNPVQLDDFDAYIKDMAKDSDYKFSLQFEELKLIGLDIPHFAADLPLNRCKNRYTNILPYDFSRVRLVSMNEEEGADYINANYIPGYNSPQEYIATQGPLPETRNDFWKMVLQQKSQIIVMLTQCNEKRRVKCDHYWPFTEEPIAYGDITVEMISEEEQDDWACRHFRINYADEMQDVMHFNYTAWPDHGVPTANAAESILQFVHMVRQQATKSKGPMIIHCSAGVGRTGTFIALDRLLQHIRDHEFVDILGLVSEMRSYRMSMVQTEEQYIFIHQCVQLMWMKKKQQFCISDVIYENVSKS
Described as above.

T2 sequence (P10586 30-1907): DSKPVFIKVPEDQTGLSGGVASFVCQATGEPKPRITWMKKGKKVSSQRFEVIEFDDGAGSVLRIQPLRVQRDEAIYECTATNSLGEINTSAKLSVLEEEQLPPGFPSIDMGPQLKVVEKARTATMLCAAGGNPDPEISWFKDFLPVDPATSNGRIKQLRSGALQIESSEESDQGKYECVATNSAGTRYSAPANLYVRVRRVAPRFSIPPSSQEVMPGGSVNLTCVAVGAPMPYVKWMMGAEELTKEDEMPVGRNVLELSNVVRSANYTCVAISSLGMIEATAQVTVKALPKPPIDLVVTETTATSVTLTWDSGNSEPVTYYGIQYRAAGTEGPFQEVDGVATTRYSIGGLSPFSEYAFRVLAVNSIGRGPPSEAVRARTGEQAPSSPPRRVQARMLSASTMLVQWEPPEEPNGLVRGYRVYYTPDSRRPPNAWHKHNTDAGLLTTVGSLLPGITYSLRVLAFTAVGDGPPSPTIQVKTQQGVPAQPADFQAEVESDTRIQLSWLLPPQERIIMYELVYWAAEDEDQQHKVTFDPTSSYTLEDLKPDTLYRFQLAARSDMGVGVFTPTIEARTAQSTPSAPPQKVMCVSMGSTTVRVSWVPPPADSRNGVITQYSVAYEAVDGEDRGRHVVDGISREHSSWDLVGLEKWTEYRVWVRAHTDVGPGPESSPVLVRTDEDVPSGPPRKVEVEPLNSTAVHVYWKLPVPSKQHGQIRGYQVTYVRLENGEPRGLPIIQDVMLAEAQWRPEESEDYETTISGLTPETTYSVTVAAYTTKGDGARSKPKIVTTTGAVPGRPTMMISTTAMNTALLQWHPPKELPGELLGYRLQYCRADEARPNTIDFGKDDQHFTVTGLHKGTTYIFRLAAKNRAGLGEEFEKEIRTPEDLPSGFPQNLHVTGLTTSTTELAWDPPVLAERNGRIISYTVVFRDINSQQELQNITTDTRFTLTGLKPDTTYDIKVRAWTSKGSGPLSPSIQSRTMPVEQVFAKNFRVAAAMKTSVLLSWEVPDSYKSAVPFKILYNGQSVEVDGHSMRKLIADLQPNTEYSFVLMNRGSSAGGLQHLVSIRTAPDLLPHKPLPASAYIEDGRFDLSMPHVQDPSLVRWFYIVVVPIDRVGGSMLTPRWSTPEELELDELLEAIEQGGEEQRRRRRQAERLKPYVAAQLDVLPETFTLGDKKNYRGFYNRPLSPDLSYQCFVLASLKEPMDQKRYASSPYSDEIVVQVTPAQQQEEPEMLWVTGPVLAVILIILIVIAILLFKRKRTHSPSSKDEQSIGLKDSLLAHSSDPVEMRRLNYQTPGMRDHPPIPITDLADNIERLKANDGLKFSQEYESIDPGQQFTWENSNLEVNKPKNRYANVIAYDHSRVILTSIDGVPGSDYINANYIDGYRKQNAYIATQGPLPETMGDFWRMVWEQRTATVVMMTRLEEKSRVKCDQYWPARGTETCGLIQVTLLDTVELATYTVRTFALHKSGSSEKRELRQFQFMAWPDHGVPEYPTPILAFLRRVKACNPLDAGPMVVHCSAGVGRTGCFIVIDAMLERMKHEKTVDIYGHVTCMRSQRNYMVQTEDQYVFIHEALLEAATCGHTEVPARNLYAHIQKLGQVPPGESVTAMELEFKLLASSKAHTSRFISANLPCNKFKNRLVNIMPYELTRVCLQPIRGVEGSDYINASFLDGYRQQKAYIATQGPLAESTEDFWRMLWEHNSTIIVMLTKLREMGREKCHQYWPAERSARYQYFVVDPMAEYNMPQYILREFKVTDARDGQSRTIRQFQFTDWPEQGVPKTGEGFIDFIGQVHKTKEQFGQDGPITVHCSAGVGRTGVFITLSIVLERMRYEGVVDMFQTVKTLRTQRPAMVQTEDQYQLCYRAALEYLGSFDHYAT
T3 sequence (P23468 21-1912): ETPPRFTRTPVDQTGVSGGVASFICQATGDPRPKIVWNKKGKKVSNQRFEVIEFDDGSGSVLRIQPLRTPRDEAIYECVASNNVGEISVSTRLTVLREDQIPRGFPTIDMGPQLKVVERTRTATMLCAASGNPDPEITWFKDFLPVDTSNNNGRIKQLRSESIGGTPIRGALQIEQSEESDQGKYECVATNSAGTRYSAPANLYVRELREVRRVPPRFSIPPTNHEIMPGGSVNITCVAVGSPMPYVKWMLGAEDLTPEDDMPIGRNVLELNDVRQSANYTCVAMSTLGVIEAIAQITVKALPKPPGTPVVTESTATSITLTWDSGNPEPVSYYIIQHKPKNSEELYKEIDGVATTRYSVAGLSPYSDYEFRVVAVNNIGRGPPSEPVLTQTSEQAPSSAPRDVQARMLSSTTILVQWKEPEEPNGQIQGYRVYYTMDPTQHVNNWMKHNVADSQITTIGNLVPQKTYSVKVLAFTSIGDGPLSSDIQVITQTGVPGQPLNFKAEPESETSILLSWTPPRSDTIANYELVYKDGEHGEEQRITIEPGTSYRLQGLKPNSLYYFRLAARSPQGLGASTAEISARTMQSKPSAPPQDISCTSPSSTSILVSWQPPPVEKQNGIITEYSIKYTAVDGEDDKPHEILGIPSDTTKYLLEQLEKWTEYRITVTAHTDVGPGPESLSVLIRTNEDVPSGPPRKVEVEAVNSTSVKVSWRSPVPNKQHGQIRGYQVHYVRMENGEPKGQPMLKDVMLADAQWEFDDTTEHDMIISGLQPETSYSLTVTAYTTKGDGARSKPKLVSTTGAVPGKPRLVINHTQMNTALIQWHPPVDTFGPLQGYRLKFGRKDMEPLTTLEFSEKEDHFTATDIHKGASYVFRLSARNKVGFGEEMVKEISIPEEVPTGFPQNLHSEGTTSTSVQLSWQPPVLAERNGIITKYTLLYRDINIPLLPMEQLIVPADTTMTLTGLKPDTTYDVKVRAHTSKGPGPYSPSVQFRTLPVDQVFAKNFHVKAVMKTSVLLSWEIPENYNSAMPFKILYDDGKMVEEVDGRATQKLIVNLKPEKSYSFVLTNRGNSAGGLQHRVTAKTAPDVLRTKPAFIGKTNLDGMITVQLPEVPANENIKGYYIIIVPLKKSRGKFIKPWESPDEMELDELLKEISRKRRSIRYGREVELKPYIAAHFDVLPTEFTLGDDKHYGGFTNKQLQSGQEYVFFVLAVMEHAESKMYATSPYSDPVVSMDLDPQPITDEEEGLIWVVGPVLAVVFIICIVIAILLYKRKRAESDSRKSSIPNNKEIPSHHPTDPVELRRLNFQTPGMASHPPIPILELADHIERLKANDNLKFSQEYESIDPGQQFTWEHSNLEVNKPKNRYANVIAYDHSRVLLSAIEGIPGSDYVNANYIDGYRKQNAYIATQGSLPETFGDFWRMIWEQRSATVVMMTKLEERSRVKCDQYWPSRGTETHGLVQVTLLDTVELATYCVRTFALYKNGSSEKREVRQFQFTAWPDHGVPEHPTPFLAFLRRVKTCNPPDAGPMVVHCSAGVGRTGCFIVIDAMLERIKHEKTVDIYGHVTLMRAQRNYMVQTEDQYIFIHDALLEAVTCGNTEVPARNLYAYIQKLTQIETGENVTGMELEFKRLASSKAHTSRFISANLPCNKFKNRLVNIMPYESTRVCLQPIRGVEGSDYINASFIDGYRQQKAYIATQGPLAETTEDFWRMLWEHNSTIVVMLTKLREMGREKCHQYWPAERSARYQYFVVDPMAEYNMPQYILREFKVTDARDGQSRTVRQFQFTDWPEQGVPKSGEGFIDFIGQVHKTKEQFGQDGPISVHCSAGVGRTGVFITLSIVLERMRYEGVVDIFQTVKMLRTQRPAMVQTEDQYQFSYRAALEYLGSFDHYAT

B1: LRFN5 extracellular domain (receptor, human, UniProt Q96NI6 18-529, looked up)
chain: QICPKRCVCQILSPNLATLCAKKGLLFVPPNIDRRTVELRLADNFVTNIKRKDFANMTSLVDLTLSRNTISFITPHAFADLRNLRALHLNSNRLTKITNDMFSGLSNLHHLILNNNQLTLISSTAFDDVFALEELDLSYNNLETIPWDAVEKMVSLHTLSLDHNMIDNIPKGTFSHLHKMTRLDVTSNKLQKLPPDPLFQRAQVLATSGIISPSTFALSFGGNPLHCNCELLWLRRLSREDDLETCASPPLLTGRYFWSIPEEEFLCEPPLITRHTHEMRVLEGQRATLRCKARGDPEPAIHWISPEGKLISNATRSLVYDNGTLDILITTVKDTGAFTCIASNPAGEATQIVDLHIIKLPHLLNSTNHIHEPDPGSSDISTSTKSGSNTSSSNGDTKLSQDKIVVAEATSSTALLKFNFQRNIPGIRMFQIQYNGTYDDTLVYRMIPPTSKTFLVNNLAAGTMYDLCVLAIYDDGITSLTATRVVGCIQFTTEQDYVRCHFMQSQFLGGTM
notes: extracellular domain; Streptavidin tetramer in cell assay; ECD-Fc prey in the variant screen; also called LFRN5
B1: the binding result with PTPRS expressed on cells, in the test with PTPRF expressed on cells and with PTPRD expressed on cells was “binds” in each case.

B2: CNTN1 extracellular domain (receptor, human, UniProt Q12860 21-993, looked up)
chain: EFTWYRRYGHGVSEEDKGFGPIFEEQPINTIYPEESLEGKVSLNCRARASPFPVYKWRMNNGDVDLTSDRYSMVGGNLVINNPDKQKDAGIYYCLASNNYGMVRSTEATLSFGYLDPFPPEERPEVRVKEGKGMVLLCDPPYHFPDDLSYRWLLNEFPVFITMDKRRFVSQTNGNLYIANVEASDKGNYSCFVSSPSITKSVFSKFIPLIPIPERTTKPYPADIVVQFKDVYALMGQNVTLECFALGNPVPDIRWRKVLEPMPSTAEISTSGAVLKIFNIQLEDEGIYECEAENIRGKDKHQARIYVQAFPEWVEHINDTEVDIGSDLYWPCVATGKPIPTIRWLKNGYAYHKGELRLYDVTFENAGMYQCIAENTYGAIYANAELKILALAPTFEMNPMKKKILAAKGGRVIIECKPKAAPKPKFSWSKGTEWLVNSSRILIWEDGSLEINNITRNDGGIYTCFAENNRGKANSTGTLVITDPTRIILAPINADITVGENATMQCAASFDPALDLTFVWSFNGYVIDFNKENIHYQRNFMLDSNGELLIRNAQLKHAGRYTCTAQTIVDNSSASADLVVRGPPGPPGGLRIEDIRATSVALTWSRGSDNHSPISKYTIQTKTILSDDWKDAKTDPPIIEGNMEAARAVDLIPWMEYEFRVVATNTLGRGEPSIPSNRIKTDGAAPNVAPSDVGGGGGRNRELTITWAPLSREYHYGNNFGYIVAFKPFDGEEWKKVTVTNPDTGRYVHKDETMSPSTAFQVKVKAFNNKGDGPYSLVAVINSAQDAPSEAPTEVGVKVLSSSEISVHWEHVLEKIVESYQIRYWAAHDKEEAANRVQVTSQEYSARLENLLPDTQYFIEVGACNSAGCGPPSDMIEAFTKKAPPSQPPRIISSVRSGSRYIITWDHVVALSNESTVTGYKVLYRPDGQHDGKLYSTHKHSIEVPIPRDGEYVVEVRAHSDGGDGVVSQVKIS
notes: extracellular domain; Streptavidin tetramer in cell assays; ECD-Fc in SPR; also called contactin 1
Regarding B2, the binding result with PTPRT expressed on cells and in the test with PTPRO expressed on cells was “no binding” in each case.
